# Test results reported in the supplement of paper PMC10567573.
# B1: CDC25A (parent)
# chain: QLIDPDENKENEAFEFKKPVRPVS
# B2: PTPN9 (parent)
# chain: IDFLRVVRNQQSLAVSNMGARSKG
# Variants of: B1
# Experiment: protein stability index of a GFP-peptide fusion (GPS, HEK-293T) (PSI 1-6); higher = more stable
# Conditions: c terminus: a fixed tail appended
# 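Note: lentivirally expressed fusions sorted by FACS into six bins by GFP to DsRed ratio, PSI derived from sequencing read proportions per bin multiplied by bin number.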
row,Variant,protein stability index
1,QLIDPDENKENEAFEFKKPVRPGS,4.05
2,QLIDPDENKENEAFEFKKPVRPFS,3.89
3,QLIDPDENKENEAFEFKKPVRPHS,4.05
4,QLIDPDENKENEAFEFKKPVRPYS,3.32
5,QLIDPDENKENEAFEFKKPVRPMS,2.46
6,QLIDPDENKENEAFEFKKPVRPRS,3.11
7,QLIDPDENKENEAFEFKKPVRPES,4.1
8,QLIDPDENKENEAFEFKKPVRPNS,3.51
9,QLIDPDENKENEAFEFKKPVRPAS,4.32
10,QLIDPDENKENEAFEFKKPVRPQS,4.04
11,QLIDPDENKENEAFEFKKPVRPIS,3.43
12,QLIDPDENKENEAFEFKKPVRPDS,4.41
13,QLIDPDENKENEAFEFKKPVRPKS,3.85
14,QLIDPDENKENEAFEFKKPVRPPS,3.52
15,QLIDPDENKENEAFEFKKPVRPCS,3.9
16,QLIDPDENKENEAFEFKKPVRPSS,3.09
17,QLIDPDENKENEAFEFKKPVRLVS,3.45
18,QLIDPDENKENEAFEFKKPVRCVS,4.98
19,QLIDPDENKENEAFEFKKPVRVVS,4.05
20,QLIDPDENKENEAFEFKKPVRAVS,3.23
21,QLIDPDENKENEAFEFKKPVRSVS,4.05
22,QLIDPDENKENEAFEFKKPVRDVS,4.45
23,QLIDPDENKENEAFEFKKPVRFVS,3.69
24,QLIDPDENKENEAFEFKKPVRNVS,4.14
25,QLIDPDENKENEAFEFKKPVRMVS,4.08

row,Variant,protein stability index
1,QLIDPDENKENEAFEFKKPVRIVS,4.31
2,QLIDPDENKENEAFEFKKPVRRVS,4.23
3,QLIDPDENKENEAFEFKKPVRHVS,3.38
4,QLIDPDENKENEAFEFKKPVRTVS,2.8
5,QLIDPDENKENEAFEFKKPVRYVS,4.71
6,QLIDPDENKENEAFEFKKPVRKVS,3.25
7,QLIDPDENKENEAFEFKKPVRGVS,3.66
8,QLIDPDENKENEAFEFKKPVRPVL,3.21
9,QLIDPDENKENEAFEFKKPVRPVR,3.58
10,QLIDPDENKENEAFEFKKPVRPVK,4.72
11,QLIDPDENKENEAFEFKKPVRPVA,4.16
12,QLIDPDENKENEAFEFKKPVRPVE,4.67
13,QLIDPDENKENEAFEFKKPVRPVF,3.88
14,QLIDPDENKENEAFEFKKPVRPVH,2.87
15,QLIDPDENKENEAFEFKKPVRPVP,4.33
16,QLIDPDENKENEAFEFKKPVRPVW,3.3
17,QLIDPDENKENEAFEFKKPVRPVV,3.76
18,QLIDPDENKENEAFEFKKPVRPVY,3.73
19,QLIDPDENKENEAFEFKKPVRPVQ,4.25
20,QLIDPDENKENEAFEFKKPVRPVM,3.49
21,QLIDPDENKENEAFEFKKPVRPVD,5.24
22,QLIDPDENKENEAFEFKKPVRPVC,3.5
23,QLIDPDENKENEAFEFKKPVRPVN,3.34
24,QLIDPDENKENEAFEFKKPVRPVG,3.54

# Variants of: B2
# Experiment: as above
# Conditions: c terminus: a fixed tail appended
row,Variant,protein stability index
1,IDPLRVVRNQQSLAVSNMGARSKG,4.2
2,IDILRVVRNQQSLAVSNMGARSKG,2.34
3,IDALRVVRNQQSLAVSNMGARSKG,3.55
4,IDQLRVVRNQQSLAVSNMGARSKG,3.89
5,IDKLRVVRNQQSLAVSNMGARSKG,3.93
6,IDSLRVVRNQQSLAVSNMGARSKG,3.88
7,IDELRVVRNQQSLAVSNMGARSKG,4.29
8,IDCLRVVRNQQSLAVSNMGARSKG,3.89
9,IDVLRVVRNQQSLAVSNMGARSKG,3.78
10,IDMLRVVRNQQSLAVSNMGARSKG,2.75
11,IDWLRVVRNQQSLAVSNMGARSKG,2.17
12,IDNLRVVRNQQSLAVSNMGARSKG,4.45
13,IDRLRVVRNQQSLAVSNMGARSKG,3.69
14,IDGLRVVRNQQSLAVSNMGARSKG,4.02
15,IDLLRVVRNQQSLAVSNMGARSKG,2.47
16,IDTLRVVRNQQSLAVSNMGARSKG,4.5
17,IDYLRVVRNQQSLAVSNMGARSKG,2.4
18,IDHLRVVRNQQSLAVSNMGARSKG,4.36
19,IDDLRVVRNQQSLAVSNMGARSKG,4.21
20,IDFLRVVCNQQSLAVSNMGARSKG,2.27
21,IDFLRVVENQQSLAVSNMGARSKG,3
22,IDFLRVVFNQQSLAVSNMGARSKG,1.47
23,IDFLRVVDNQQSLAVSNMGARSKG,3.22

row,Variant,protein stability index
1,IDFLRVVANQQSLAVSNMGARSKG,2.54
2,IDFLRVVGNQQSLAVSNMGARSKG,2.37
3,IDFIRVVRNQQSLAVSNMGARSKG,1.69
4,IDFFRVVRNQQSLAVSNMGARSKG,2.3
5,IDFDRVVRNQQSLAVSNMGARSKG,4.58
6,IDFERVVRNQQSLAVSNMGARSKG,4.22
7,IDFARVVRNQQSLAVSNMGARSKG,3.04
8,IDFVRVVRNQQSLAVSNMGARSKG,2.6
9,IDFGRVVRNQQSLAVSNMGARSKG,3.69
10,IDFTRVVRNQQSLAVSNMGARSKG,3.33
11,IDFSRVVRNQQSLAVSNMGARSKG,3.6
12,IDFQRVVRNQQSLAVSNMGARSKG,3.37
13,IDFCRVVRNQQSLAVSNMGARSKG,2.94
14,IDFPRVVRNQQSLAVSNMGARSKG,3.86
15,IDFYRVVRNQQSLAVSNMGARSKG,1.89
16,IDFRRVVRNQQSLAVSNMGARSKG,3.06
17,IDFWRVVRNQQSLAVSNMGARSKG,1.72
18,IDFNRVVRNQQSLAVSNMGARSKG,3.48
19,IDFKRVVRNQQSLAVSNMGARSKG,3.25
20,IDFMRVVRNQQSLAVSNMGARSKG,2.48
21,IDFHRVVRNQQSLAVSNMGARSKG,3.35
22,WDFLRVVRNQQSLAVSNMGARSKG,2.88
